# According to patent publication US20220054630A1 (published 2022):
# B1: CD81 large extracellular loop (LEL) (receptor)
# chain: FVNKDQIAKDVKQFYDQALQQAVVDDDANNAKAVVKTFHETLDCCGSSTLTALTTSVLKNNLCPSGSNIISNLFKEDCHQKIDDLFSGK
# Biological target: T1, wild-type soluble E2 (sE2), HCV isolate H77C, residues 384-661 (UniProt P27958 384-661)
# T1 chain: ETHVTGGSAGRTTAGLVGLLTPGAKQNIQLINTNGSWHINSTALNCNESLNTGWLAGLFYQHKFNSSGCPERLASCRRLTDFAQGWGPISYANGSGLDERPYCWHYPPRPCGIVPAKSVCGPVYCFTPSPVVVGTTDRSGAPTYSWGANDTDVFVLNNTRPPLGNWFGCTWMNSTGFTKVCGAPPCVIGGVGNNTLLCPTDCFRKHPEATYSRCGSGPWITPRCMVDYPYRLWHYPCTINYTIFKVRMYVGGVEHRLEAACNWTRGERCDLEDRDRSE
# Assay: BLI
binder,measurement,value
B1,Kd,22 nM
